Test results as given in publication PMC3268689 (Molecular Cell, 2009).

Target: the molecule itself
Test: SEC

Protein | stoichiometry N
PAN nucleotidase domain (residues 155-430) (domain or fragment, Methanocaldococcus jannaschii, UniProt Q58576 155-430, looked up) RAKAMEVDERPNVRYEDIGGLEKQMQEIREVVELPLKHPELFEKVGIEPPKGILLYGPPGTGKTLLAKAVATETNATFIRVVGSELVKKFIGEGASLVKDIFKLAKEKAPSIIFIDEIDAIAAKRTDALTGGDREVQRTLMQLLAEMDGFDARGDVKIIGATNRPDILDPAILRPGRFDRIIEVPAPDEKGRLEILKIHTRKMNLAEDVNLEEIAKMTEGCVGAELKAICTEAGMNAIRELRDYVTMDDFRKAVEKIMEKKKVKVKEPAHLDVLYR | 6
PAN subcomplex I fragment (residues 74-150), coiled-coil OB-fold domain (domain or fragment, Methanocaldococcus jannaschii, UniProt Q58576 74-150, looked up, selenomethionine (in the crystals used for MAD phasing and refinement)) MKENEILRRELDRMRVPPLIVGTVVDKVGERKVVVKSSTGPSFLVNVSHFVNPDDLAPGKRVCLNQQTLTVVDVLPE | 6
